Target: sDMA-containing peptide (Bio-…[sDMA]G[sDMA]G[sDMA]G[sDMA]KPN)
Assay: SPR

Kd: 27 µM
Substance: His-tagged N-terminal deleted BmPAPI (ΔN-BmPAPI: amino acids 48–629) (domain or fragment)

Reference: article PMC3854531
